These results are taken from article PMC8927147, “Global profiling of regulatory elements in the histone benzoylation pathway” (Nature Communications, 2022).

Common to all, as to experiment: crystal structure; protein (15 mg/ml) mixed with peptide at 1:5 molar ratio; sitting-drop vapor diffusion at 25 °C
Conditions in all cases: both partners purified

One assay has as its target T1, Sth1BD (S. cerevisiae, UniProt P32597 1248-1359).
T1 construct: also called Bromodomain from Sth1; source: E. coli Rosetta, purified (Ni-NTA, on-bead ULP1 digestion, SEC); not shown: 6*His-Sumo, N-terminal, cleaved
T1 sequence (looked up): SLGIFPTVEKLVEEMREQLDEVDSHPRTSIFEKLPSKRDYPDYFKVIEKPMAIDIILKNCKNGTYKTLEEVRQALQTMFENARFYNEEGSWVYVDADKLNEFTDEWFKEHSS

Another assay addresses T2, Taf14_(YEATS) (S. cerevisiae, UniProt P35189 2-137).
T2 construct: Taf14, S. cerevisiae, YEATS domain, residues 2-137; also called Taf14_(2-137); YEATS domain of Taf14; source: E. coli Rosetta, purified (Ni-NTA, on-bead ULP1 digestion, SEC); not shown: 6*His-Sumo, N-terminal, cleaved
T2 sequence (looked up): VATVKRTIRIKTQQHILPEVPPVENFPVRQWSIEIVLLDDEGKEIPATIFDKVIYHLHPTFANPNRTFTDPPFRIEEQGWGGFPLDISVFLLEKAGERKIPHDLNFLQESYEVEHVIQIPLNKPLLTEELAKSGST

For the next assay, the target named is T3, Hst2_(8-294) (S. cerevisiae, UniProt P53686 8-294).
T3 construct: Construct of the crystal structures; source: E. coli Rosetta, purified (Ni-NTA, on-bead ULP1 digestion, SEC); not shown: 6*His-Sumo, N-terminal, cleaved
T3 sequence (P53686 8-294): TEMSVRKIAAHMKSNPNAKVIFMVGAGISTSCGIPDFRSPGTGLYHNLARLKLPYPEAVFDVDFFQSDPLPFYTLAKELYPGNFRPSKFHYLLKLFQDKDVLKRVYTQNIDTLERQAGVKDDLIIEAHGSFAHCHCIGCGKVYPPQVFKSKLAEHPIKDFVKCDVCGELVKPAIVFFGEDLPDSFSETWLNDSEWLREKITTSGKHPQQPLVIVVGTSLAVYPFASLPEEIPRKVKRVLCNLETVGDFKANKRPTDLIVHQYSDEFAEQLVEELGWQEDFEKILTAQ

The next assay concerns the target T4, Sas5_(YEATS) (S. cerevisiae, UniProt Q99314 2-139).
T4 construct: also called YEATS domain of Sas5; source: E. coli Rosetta, purified (Ni-NTA, on-bead ULP1 digestion, SEC); not shown: 6*His-Sumo, N-terminal, cleaved
T4 sequence (looked up): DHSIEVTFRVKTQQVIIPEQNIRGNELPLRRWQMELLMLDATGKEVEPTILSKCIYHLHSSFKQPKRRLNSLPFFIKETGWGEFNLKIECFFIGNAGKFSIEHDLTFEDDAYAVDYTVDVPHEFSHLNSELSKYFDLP

Ends that are not written are not given here. * marks the point of attachment. Bz = O=C(c1ccccc1)*

B1: H3K14bz(TARKSTGGKbzAPRKQLASY) (peptide)
peptide: TARKSTGGK(Bz)APRKQLASY
notes: histone H3, residues 6-22; C-terminal tyrosine (Y23) that is not in H3 at this position; also called H3K14bz peptide of the Sth1BD crystal; source: synthetic peptide
Turning to B1, the binding result with Sth1BD is reported as “binds”.

B2: H3_(5-13)K9bz (peptide)
peptide: Ac-QTARK(Bz)STGG
notes: histone H3, residues 5-13; Peptide crystallised with Taf14_(2-137); also called H3K9bz (Ac-QTARKbzSTGG); source: synthetic peptide
With B2, in the assay with Taf14_(YEATS), the binding result is “binds”.

B3: H3_(5-14)K9bz (peptide)
peptide: QTARK(Bz)STGGK
notes: histone H3, residues 5-14; also called benzoylated H3 peptide; source: synthetic peptide
Take B3: the binding result in the assay with Hst2_(8-294) was “binds”.

B4: H3_(18-37)K27bz (peptide)
peptide: KQLASKAARK(Bz)SAPSTGGVKY
notes: histone H3, residues K18 to K36; extra tyrosine residue (Y37) at the C-terminus designed for concentration determination by UV spectrometry; source: synthetic peptide
On to B4, for which the binding result with Sas5_(YEATS) is “binds”.
